# From publication PMC7088233
# What was measured:
# [1] = target: recombinant glycosylated HIV-1 IIIB gp120 (baculovirus) (HIV-1 IIIB) (UniProt P04578)
# [2] = target: recombinant glycosylated HIV-1 IIIB gp120 (baculovirus) (HIV-1 IIIB) (UniProt P04578); assay: SPR
Substance,IC50 of neutralization of HIV-1 (derived from pNL4-3) in Jurkat cells [1],Ka [2],Kd [2],koff [2]
His-tagged recombinant KAA-1 (Kappaphycus alvarezii agglutinin 1) (natural protein),12.9 nM,,,
native KAA-1 lectin from Kappaphycus alvarezii (natural protein),9.2 nM,,,
native KAA-2 lectin from Kappaphycus alvarezii (natural protein),7.3 nM,,,
recombinant KAA-1 after removal of the His tag by thrombin (natural protein),,1.61e+09 M⁻¹,0.622 nM,0.000529 s⁻¹
